Measurements published in the nanobody polyreactivity screen of Harvey et al. (2022).

Experiment: yeast display, Sf9 membrane polyspecificity reagent, FACS + sequencing; frameworks hold sequencing errors
Outline: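 Synthetic nanobody libraries on Saccharomyces cerevisiae BJ5465 were galactose-induced for 36–48 hours, stained 1 hour at 4 °C with 10% biotinylated, detergent-solubilized Sf9 membrane reagent and enriched on streptavidin microbeads. FACS then separated cells into low and high (top ~1%) gates by anti-HA (expression) and streptavidin (reagent binding) fluorescence. Genes were colony-PCR amplified, MiSeq 2 × 250 sequenced and CDR-length filtered. A clone's polyreactivity label is that of its gate of origin.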

Row | Sequence | polyreactivity (PSR sort gate)
1 | QVQLVESGGGLVQAGGSLRLSCAASGFTFRRNAMGWYRQAPGTERELVAAINVRDGSTYYADSVKGRFTISRDNAKNTVYVQMNSLKPEDTAVYYCAAEFFQGYYWYYYWGQGTQVTVSS | high polyreactivity
2 | QVQLVESGGGLVQAGGSLRLSCAASGFTFRRYAMGWYRPAPGKERELVAAITPNGGSTYYADSVKGRFTISRDNAMNNFYLQMNRLKPEDTAVYYCNAVLYTPVYDGFDSWGQGTQVTVSS | high polyreactivity
3 | QVQLVESGGGLVQAGGSLRLSCAASGFTFRRYAMGWYRQAPGKERELVAAINKSGGSTYYADSVKGRFTISRDNAKNTVYLQMNSLKPEDTAVYYCAKPLTAYSGFDHWGQGTQVTVSS | high polyreactivity
4 | QVQLVESGGGLVQAGGSLRLSCAASGFTFRRYAMGWYRQAPGKERELVAAISGRGGSTYYADSVKGRFTISRDTAKNTVYLQINSLKPEDTAVYYCNDDRYVRWTPGDYWGQGTQVTVSS | high polyreactivity
5 | QVQLVESGGGLVQAGGSLRLSCAASGFTFRRYAMGWYRQAPGKERELVAAISRSGGRTYYADSVKGRFTISRDNAKNTVYLQMNSLKPEDTAVYYCAARYFKPGGAYDSWGQGTQVTVSS | high polyreactivity
6 | QVQLVESGGGLVQAGGSLRLSCAASGFTFRRYAMGWYRQAPGKERELVAAITYSGTRTYYADSVKGRFTISRDIAKNTVYLEMNSLSPEDTAVYYCNAGVGYFVGTYYGFLPYDYWGQGTQVTVSS | high polyreactivity
7 | QVQLVESGGGLVQAGGSLRLSCAASGFTFRRYDMGWYRQAPGKERELVATINRGGSTDYADSVKGRFTISRDNAKNTVYLQLNSLKPEDTAVYYCATRYYSSRTWSEYYYWGQGTQVTVSS | high polyreactivity
8 | QVQLVESGGGLVQAGGSLRLSCAASGFTFRSNAMGWYRQAPGKERELVATISSGGSTYYADSVKGRFTISRDNAKNTVYLQMNSLKPEDTAVYYCAADDLGWWFYSGGEDYDYWGQGTQVTVSS | low polyreactivity
9 | QVQLVESGGGLVQAGGSLRLSCAASGFTFRSYAMGCYRQAPEKEMELVAAISRRGGSTYYADSVKGRFTISRDNAKNTVYLQMNSLKPEDTAVYFCAKDGTGAGTYDYWGQGTQVTVSS | low polyreactivity
10 | QVQLVESGGGLVQAGGSLRLSCAASGFTFRSYAMGWYRQAPGKERELVAAITSTGGRTYYADSVKGRFTISRDTAKNTVYLQMNSLKPEDTAVYYCAAGRKHYAPVHFGYWGQGTQVTVSS | high polyreactivity
11 | QVQLVESGGGLVQAGGSLRLSCAASGFTFRSYDMGWYRQAPGKERELVAAISSTGRTYYADSVKGRFTISRDNAKNTVYLHMYSLNPEDTAVYYCARNIPVSYYRYGYWGQGSQVTVSS | high polyreactivity
12 | QVQLVESGGGLVQAGGSLRLSCAASGFTFRSYTMGWYRQAPGKERELVAAITSGGSTYYADSVKGRFTISRDNAKNTVYLQMNSLKPEDTAVYYCAVTYRWHTFIYDYWGQGTQVTVSS | low polyreactivity
13 | QVQLVESGGGLVQAGGSLRLSCAASGFTFRTNVMGWYRQAPGKERELVASISSTGSTNYADSVKGRFTISRDNAKNTVYLQMNSLKPEDTAVYYCARRYRYRYNYWGQGTQVTVSS | high polyreactivity
14 | QVQLVESGGGLVQAGGSLRLSCAASGFTFRTYAMGWYRQAPGKERELVAAITRNGGTYYADSVKGRFTISRDNAKNTVYLQMHSLNPEDTAVYYCATDPAYWGDQPPEYDYWGQGTQVTVSS | low polyreactivity
15 | QVQLVESGGGLVQAGGSLRLSCAASGFTFRVYAMGWYRQAPGKERELVAAISVRGDSTYYADSVKGRFTISRDNAKNTVYLQMNSLKPEDTAVYYCNAALLGKQYYSNPNYDYWGQGTQVTVSS | high polyreactivity
16 | QVQLVESGGGLVQAGGSLRLSCAASGFTFRWYAMGWYRQAPGKERELVAAIDWSGTTTYADSVKGRFTISRDNAKNTVYLQMNSLKPEDTAVYYCAAVFRRSGYASPYDYWGQGTQVTVSS | high polyreactivity
17 | QVQLVESGGGLVQAGGSLRLSCAASGFTFRYNAMGWYRKPPGKERELVAAITSGGNTNYADSVKGRFTISRDNAKNTVYLQMNSLKPEDTAVYYCNTAWRDYVARLGGVGYDYWGQGTQVTVSS | high polyreactivity
18 | QVQLVESGGGLVQAGGSLRLSCAASGFTFRYNAMGWYRQAPGKERELVAAISRGTITNYADSVKGRFTISRDNAKNTVYLQMNSLKPEDTAVYYCAARYPGHFRFYYWGQGTQVTVSS | high polyreactivity
19 | QVQLVESGGGLVQAGGSLRLSCAASGFTFRYYAMGCYRPAPGKERELVAAISSRGGTTYYADSVKGRFTISRDNAKNTVYLQMNSLKPEDTAVYYCAATYAYGRYYGYVYLGDYWGQGTQVTVSS | high polyreactivity
20 | QVQLVESGGGLVQAGGSLRLSCAASGFTFRYYAMGWFRQAPGKESELVAAITWSGGGTYYADSVKGRFTISRYNAKNTVYLQMNSLKPEDTAVYYCNVYKSHRHQAEYNYWGQGTKVTVSS | high polyreactivity
21 | QVQLVESGGGLVQAGGSLRLSCAASGFTFRYYAMGWYRPAPGKERELVAAISSRGGSTYYADSVKGRFTISRDNAKNTVYLQINSLKPEDTAVYYCAVVRWRHYIFATYDYWGQGTQVTVSS | high polyreactivity
22 | QVQLVESGGGLVQAGGSLRLSCAASGFTFRYYAMGWYRQAPGKEREFVAAIRWRGATTYYADSVKGRFTISRDNAKNTVLLQMNSLKPEDTAVYYCAARYVYNSDRVSERDYWGQGTQVTVSS | high polyreactivity

Row | Sequence | polyreactivity (PSR sort gate)
23 | QVQLVESGGGLVQAGGSLRLSCAASGFTFRYYAMGWYRQAPGKERELVAAIRRSGGSTYYADSVKGRFTISRDNAKNTVYLQMNSLKPEDTAVYYCAAVGPTYWRGYPSGYDYWGQGTQVTVSS | high polyreactivity
24 | QVQLVESGGGLVQAGGSLRLSCAASGFTFRYYAMGWYRQAPGKERELVASITSSGSTNYADSVKGRFTISRDNAKNTVYLQMNSLKPEDTAVYYCAKGWGSDPFRKYGDYWGQGTQVTVSS | high polyreactivity
25 | QVQLVESGGGLVQAGGSLRLSCAASGFTFRYYPMGWYRQAPGKERELVAAISWDRDSTYYADSVKGRFTISRDHAKHTVYFQMNSLKPEDTAVYYCAPEYRSWGRYRYRFNYWGQGTQVTVSS | high polyreactivity
26 | QVQLVESGGGLVQAGGSLRLSCAASGFTFRYYTMGWYRQAPGKERELVAAINRSGSTNYADSVKGRFTISRDNAKNTVYLQMNSLKPEDTAVYYCAAAYYGSHGRYDYWGQGTQVTVSS | high polyreactivity
27 | QVQLVESGGGLVQAGGSLRLSCAASGFTFRYYTMGWYRQAPGKETELVAAINTSGAGTYYADSVKGRFTISRDNAKNTVYLQMNSLKPEDTAVYYCAATWYGLDYNYWGQGTQVTVSS | high polyreactivity
28 | QVQLVESGGGLVQAGGSLRLSCAASGFTFRYYTMVWYRQAPGKERELVAAITSSGGNTYYADSVKGRFTISRDNAKNTVYLQMNSLKPEDTAVYYCAADAYPQYNGWSWMDYWGQGTQVTVSS | low polyreactivity
29 | QVQLVESGGGLVQAGGSLRLSCAASGFTFRYYVMGWYRQAPGKERELVAAISTRGGRTYYADSVKGRFTISRDNAKNTVYLQMNSLKPEDTAVYYCAKDAHHSYTWGYGYWGQGTQVTVSS | high polyreactivity
30 | QVQLVESGGGLVQAGGSLRLSCAASGFTFSAYAMGWYRQAPGKERELVAAISTRGGSTRYADSVKGRFTISRDNAKNTVYLQMNSLKPADTAVYSCAADTRSFYRYDYWGQGTQVTVSS | high polyreactivity
31 | QVQLVESGGGLVQAGGSLRLSCAASGFTFSAYTMGWYRQAPGKERELVAAINWSGANTYYADSVKGRFTISRDNAKNTVYLQMNSLKPEDTAVYYCNAEDDYTYDRSFGGYKYDYWGQGTQVTVSS | low polyreactivity
32 | QVQLVESGGGLVQAGGSLRLSCAASGFTFSDNAMVWYRQAPGKERELVAAISEGSGITYDADSVKGRFTISRDNAKNTVNLQMNSLKPEDNAVYYCAADWLSKYDYWGQGTQVTVSS | low polyreactivity
33 | QVQLVESGGGLVQAGGSLRLSCAASGFTFSFYAMGWYRQAPGKERELVAAITNGGSTYYADSVKGRFTISRDNAKNTVYLQMNSLKPEDTAVYYCAAEWDYPWWRIVAVYGYEYWGQGTQVTVSS | low polyreactivity
34 | QVQLVESGGGLVQAGGSLRLSCAASGFTFSFYARGWYIQAPGKERELVAAIDRSGGSTYYADSVKGRFTISRDNAKNTVYLQMNSLKPEDTAVYYCAATVFYGYYYWGQGTQVTVSS | high polyreactivity
35 | QVQLVESGGGLVQAGGSLRLSCAASGFTFSGYAMGWYRQAPGKERELVASISRRGGSTYYADSVKGRFTISRDNAKNTVYLQMNSLKPEDTAVYYCATLRGRLRFGYDYWGQGTQVTVSS | high polyreactivity
36 | QVQLVESGGGLVQAGGSLRLSCAASGFTFSGYAMGWYRQAPGKERELVASITGSGSSTYYADSVKGRFTISRDNAKNNVYLQMNSLKPEDTAVYYCNAQFIGGWWAIYDYWGQGTQVTVSS | high polyreactivity
37 | QVQLVESGGGLVQAGGSLRLSCAASGFTFSKYTMGWYRQAPGQERELVARITRRGGSTYYADSVKGRFTISRDNAKNTVYLQMNSLKPEDTAVYYFAADVYAYNGEYDYWGQGTQVTVSS | high polyreactivity
38 | QVQLVESGGGLVQAGGSLRLSCAASGFTFSLYAMGWYRQAPGKERELVAAISRSGGSTYYADSVKGRFTISRDNAKNTVYLQMNSLNPEDTAVYYCAAREQTYTQRGKKLYYYWGQGTQVTVSS | high polyreactivity
39 | QVQLVESGGGLVQAGGSLRLSCAASGFTFSLYAMGWYRQAPGKERELVAAISSRGGTTYYADSVKGRFTISRDNAKNTVYLQMNSLKPEDTAVYYCAARYVYTRSAFDYWGQGTQVTVSS | high polyreactivity
40 | QVQLVESGGGLVQAGGSLRLSCAASGFTFSLYAMGWYRQAPGKERELVAAITWSGTRTYYADSVKGRFTISRDNAKNTVYLQMNSLKPEDTAVYYCATQGYGYRGWRNLYDYDYWGQGTQVTVSS | high polyreactivity
41 | QVQLVESGGGLVQAGGSLRLSCAASGFTFSLYDMGWYRQAPGKERELVAAISSDGSTNYADSVKGRFTISRDNAKNTVYLQMNSLKPEDTAVYYCAADETFLSYWLNYWGQGTQVTLSS | low polyreactivity
42 | QVQLVESGGGLVQAGGSLRLSCAASGFTFSLYDMGWYRQAPGKERQLVADINGSGGSTYYADSVKGRFTISRDNAKNTVYLQMNSLKPEDTAVYYCAAGPPSRWWYIVDYGYWGQGTQVTVSS | high polyreactivity
43 | QVQLVESGGGLVQAGGSLRLSCAASGFTFSPNAMGWYRQAPGKERELVAAIDWSGDRTYSADSVKGRFTISRDNAKNTVYLQMNSLKPEDTAVYYCNVVRRSPGDYSYFYWGQGTQVTVSS | low polyreactivity
